Test results taken from patent US20220033515A1 (Genentech, published 2022).
Changes are numbered by the printed parent chain. Where “and” joins values, the source holds several entries; their conditions need not be identical. Equal values may be shown once. Read-outs that look alike come from different tables or passages of the source.

Tests used:
[1] = target: T1, hVEGF109 (human, UniProt P15692 214-315); test: Biacore SPR
T1 construct: range 8-109; also called VEGF (8-109)
T1 sequence (looked up): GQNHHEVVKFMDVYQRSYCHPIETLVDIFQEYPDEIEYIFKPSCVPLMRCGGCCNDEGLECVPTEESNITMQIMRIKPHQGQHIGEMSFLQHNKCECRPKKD

[2] = target: T2, human vascular endothelial growth factor (hVEGF) (human, UniProt P15692-4 27-191); test: equilibrium KD; method and format (Fab or IgG) not given
T2 construct: also called hVEGF-A; human vascular endothelial growth factor A

[3] = target: T3, HER2 extracellular domain (Her2-ECD) (human, UniProt P04626 23-652); test: single-spot phage ELISA
T3 construct: extracellular domain; also called hHER2 extracellular domain (ECD)

[4] = target: T4, epidermal growth factor receptor extracellular domain (hEGFR) (human, UniProt P00533 25-645); test: ELISA on immobilised protein
T4 construct: extracellular domain

[5] = target: T5, bovine serum albumin (BSA) (bovine, UniProt P02769 25-607); test: ELISA on immobilised protein
[6] = target: T6, hVEGF-C (human, UniProt P49767 103-227); test: ELISA on immobilised protein
T6 sequence (looked up): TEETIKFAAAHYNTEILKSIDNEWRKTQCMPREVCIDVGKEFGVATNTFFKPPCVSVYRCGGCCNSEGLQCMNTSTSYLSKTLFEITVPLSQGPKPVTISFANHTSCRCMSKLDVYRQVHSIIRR

[7] = target: T7, hVEGF-D (human, UniProt O43915 93-201); test: ELISA on immobilised protein
T7 sequence (looked up): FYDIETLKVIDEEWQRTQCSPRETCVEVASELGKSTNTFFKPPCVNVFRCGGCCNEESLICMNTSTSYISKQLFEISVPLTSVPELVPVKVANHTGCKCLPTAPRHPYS

[8] = target: T3, HER2 extracellular domain (Her2-ECD); test: ELISA on immobilised protein
[9] = target: T8, human death receptor 5 (hDR5) (human, UniProt O14763 56-210); test: ELISA on immobilised protein
T8 construct: also called DR5 long; hDR5-1f

[10] = target: T3, HER2 extracellular domain (Her2-ECD); test: competitive phage ELISA
[11] = target: T3, HER2 extracellular domain (Her2-ECD); test: single-spot competitive phage ELISA
[12] = target: T3, HER2 extracellular domain (Her2-ECD); test: equilibrium KD; method and format (Fab or IgG) not given; HER2, second number of the cell
[13] = target: T3, HER2 extracellular domain (Her2-ECD); test: Biacore SPR
[14] = target: T4, epidermal growth factor receptor …; test: ELISA on immobilised target
[15] = target: T9, murine VEGF (mVEGF) (murine, UniProt Q00731-2 27-190); test: ELISA on immobilised target
T9 sequence (looked up): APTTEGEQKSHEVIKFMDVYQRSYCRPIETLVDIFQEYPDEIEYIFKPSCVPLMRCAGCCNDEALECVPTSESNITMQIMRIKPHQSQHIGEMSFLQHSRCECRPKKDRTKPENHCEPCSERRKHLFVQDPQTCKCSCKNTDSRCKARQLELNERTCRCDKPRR

[16] = target: T6, hVEGF-C; test: ELISA on immobilised target
[17] = target: T7, hVEGF-D; test: ELISA on immobilised target
[18] = target: T1, hVEGF109; test: Biacore SPR, steady state analysis (* for kon and koff)
[19] = target: T3, HER2 extracellular domain (Her2-ECD); test: competitive phage ELISA; remark: listed apart in the source
[20] = target: T2, human vascular endothelial growth …; test: competitive phage ELISA
[21] = target: T1, hVEGF109; test: single-spot competitive phage ELISA
[22] = target: T5, bovine serum albumin (BSA); test: ELISA on immobilised target
[23] = target: T8, human death receptor 5 (hDR5); test: ELISA on immobilised target

B1: 3-1 (antibody, V domains shown)
VH: not shown
VL: DIQMTQSPSSLSASVGDRVTITCRASQNVWDWVAWYQQKPGKAPKLLIYPASSLYSGVPSRFSGSGSGTDFTLTISSLQPEDFATYYCQQGWYIAPPTFGQGTKVEIKR
In the case of B1, the Kd [1] is reported as 15 nM, the Kd [2] is reported as 15 nM and the binding result [3] is reported as “no binding”.

B2: 3-1 hIgG (antibody, V domains shown)
VH: not shown
VL: B1 VL
notes: not shown: rest of the human IgG heavy chain constant region
In the case of B2, the Kd [1] is reported as 12 nM, the binding result [4] is reported as “no binding (tested: 100 or 500 nM (text))” and the binding result [5] is reported as “no binding (tested: 100 or 500 nM (text))”. B2: no binding (tested: 100 or 500 nM (text)) [6]; no binding (tested: 100 or 500 nM (text)) [7]; no binding (tested: 100 or 500 nM (text)) [8]. B2: no binding (tested: 100 or 500 nM (text)) [9].

B3: bH3 (antibody, V domains shown)
VH: not shown
VL: DIQMTQSPSSLSASVGDRVTITCRASQDIGLGSVAWYQQKPGKAPKLLIYWASYLYSGVPSRFSGSGSGTDFTLTISSLQPEDFATYYCQQHYTTPPTFGQGTKVEIKR
B3 gave a Kd [2] of 19000 nM, an IC50 [10] of 2.6 nM and an OD450 without competitor [11] of 1.96. The Kd [12] was 8 nM.

B4: H3 hIgG (antibody, V domains shown)
VH: not shown
VL: B3 VL
notes: also called bH3 IgG; not shown: rest of the human IgG heavy chain constant region
With B4 the Kd [13] was 20 nM, the binding result [14] was “no binding (tested: 100 nM (text))” and the binding result [15] was “no binding (tested: 100 nM (text))”. B4: no binding (tested: 100 nM (text)) [16]; no binding (tested: 100 nM (text)) [17]; no binding (tested: 100 or 500 nM (text)) [5]. B4: no binding (tested: 100 or 500 nM (text)) [9].

B5: H4_D (antibody, V domains shown)
VH: not shown
VL: DIQMTQSPSSLSASVGDRVTITCRASQDIRSGSVAWYQQKPGKAPKLLIYWGSYLYSGVPSRFSGSGSGTDFTLTISSLQPEDFATYYCQQHYTTPPTFGQGTKVEIK
notes: also called H4_D hIgG
Work on B5 yielded a Kd [13] of 11 nM, a koff [13] of 0.0012 s⁻¹ and a kon [13] of 100000 M⁻¹ s⁻¹. The Kd [18] was 2300 nM.

B6: H4_N (antibody, V domains shown)
VH: not shown
VL: B5 VL with D28N, G52A
notes: also called H4_N hIgG; H4_N Fab
In the case of B6, the Kd [13] is reported as 10 nM and 6 nM, the koff [13] is reported as 0.0013 s⁻¹ and the kon [13] is reported as 140000 M⁻¹ s⁻¹ and 230000 M⁻¹ s⁻¹. The Kd [18] was 550 nM.

B7: 3-2 (scFv, V domains shown)
VH: not shown
VL: B5 VL with S31M, Y54V
B7 showed an IC50 [19] of 1.56 nM and an IC50 [20] of over 1000 nM.

B8: H5 (row of FIG.8a) (scFv, V domains shown)
VH: not shown
VL: B5 VL with S31G, W51G, H92Y
In the case of B8, the “% signal, SSC +/- 50nM Vegf” value [21] is reported as 88.8%, the OD450 without competitor [21] is reported as 2.77 and the OD450 without competitor [11] is reported as 2.87.

B9: bH1 (antibody, V domains shown)
VH: not shown
VL: DIQMTQSPSSLSASVGDRVTITCRASQDIPRSISGYVAWYQQKPGKAPKLLIYWGSYLYSGVPSRFSGSGSGTDFTLTISSLQPEDFATYYCQQHYTTPPTFGQGTKVEIKR
notes: also called anti-hVEGF/Her2 bi-specific antibody
For B9, the IC50 [10] was 10 nM and the Kd [12] was 26 nM.

B10: bH1 hIgG (antibody, V domains shown)
VH: not shown
VL: B9 VL
notes: also called bH1 IgG; not shown: rest of the human IgG heavy chain constant region
In the case of B10, the Kd [13] is reported as 9.8 nM, the binding result [14] is reported as “no binding (tested: 100 nM (text))” and the binding result [22] is reported as “no binding (tested: 100 nM (text))”. B10: no binding (tested: 100 nM (text)) [16]; no binding (tested: 100 nM (text)) [17]; no binding (tested: 100 nM (text)) [23].
